In assay [1] the target is death receptor 4 (DR4) on the cell surface (Ramos, Colo-205, RPMI 8226 cells) (human, UniProt O00220 24-468). The experiment in a line: cell-based or functional assay.
Assay [2] deals with T1, CD30 on the surface of Karpas 299 cells (human, UniProt P28908 19-595).
T1 sequence (looked up): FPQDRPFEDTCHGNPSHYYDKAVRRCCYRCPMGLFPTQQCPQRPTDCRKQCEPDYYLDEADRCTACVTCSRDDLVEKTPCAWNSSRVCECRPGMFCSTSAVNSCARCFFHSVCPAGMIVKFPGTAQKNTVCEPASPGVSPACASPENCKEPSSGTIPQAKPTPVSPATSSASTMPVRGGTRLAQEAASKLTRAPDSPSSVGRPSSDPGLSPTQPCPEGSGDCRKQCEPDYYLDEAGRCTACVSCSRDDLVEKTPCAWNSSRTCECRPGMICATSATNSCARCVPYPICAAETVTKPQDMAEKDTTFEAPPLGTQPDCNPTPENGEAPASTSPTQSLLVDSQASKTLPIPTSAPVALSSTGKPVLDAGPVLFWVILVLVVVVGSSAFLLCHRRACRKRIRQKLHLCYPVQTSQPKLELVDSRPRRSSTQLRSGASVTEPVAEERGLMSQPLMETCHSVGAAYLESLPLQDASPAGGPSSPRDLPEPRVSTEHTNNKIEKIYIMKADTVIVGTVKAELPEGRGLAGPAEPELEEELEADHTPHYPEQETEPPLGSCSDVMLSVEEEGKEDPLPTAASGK
The experiment in a line: cell-based or functional assay.

Bounds are passed on as bounds.

B1: HuYON007.V279-Fcµtp monomer (antibody, human IgG1, lambda)
heavy: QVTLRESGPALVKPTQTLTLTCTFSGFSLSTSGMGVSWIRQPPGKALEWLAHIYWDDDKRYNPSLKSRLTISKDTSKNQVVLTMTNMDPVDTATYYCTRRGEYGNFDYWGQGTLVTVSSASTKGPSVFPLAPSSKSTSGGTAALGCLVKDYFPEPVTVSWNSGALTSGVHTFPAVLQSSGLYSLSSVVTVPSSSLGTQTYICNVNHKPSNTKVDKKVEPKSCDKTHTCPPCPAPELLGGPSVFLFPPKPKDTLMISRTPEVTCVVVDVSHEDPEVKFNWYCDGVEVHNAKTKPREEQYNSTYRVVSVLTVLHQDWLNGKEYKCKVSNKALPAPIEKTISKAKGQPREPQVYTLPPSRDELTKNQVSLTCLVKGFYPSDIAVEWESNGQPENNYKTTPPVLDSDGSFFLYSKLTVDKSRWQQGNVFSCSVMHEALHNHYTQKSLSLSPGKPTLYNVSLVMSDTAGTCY
light: QTVVTQEPSFSVSPGGTVTLTCRSSSGAVTTSNFANWVQQTPGQAPRGLIGGTNNRAPGVPDRFSGSILGNKAALTITGAQADDESDYYCALWYSNHWVFGGGTKLTVLGQPKAAPSVTLFPPSSEELQANKATLVCLISDFYPGAVTVAWKADSSPVKAGVETTTPSKQSNNKYAASSYLSLTPEQWKSHRSYSCQVTHEGSTVEKTVAPTECS
For B1, the “cell viability of Ramos cells at 100 ng/ml of antibody (alamarBlue)” value (“cell viability of Ramos cells” for short) in assay [1] came to 80%.

B2: HuYON007.H285-Fcµtp monomer (antibody, human IgG1, lambda)
heavy: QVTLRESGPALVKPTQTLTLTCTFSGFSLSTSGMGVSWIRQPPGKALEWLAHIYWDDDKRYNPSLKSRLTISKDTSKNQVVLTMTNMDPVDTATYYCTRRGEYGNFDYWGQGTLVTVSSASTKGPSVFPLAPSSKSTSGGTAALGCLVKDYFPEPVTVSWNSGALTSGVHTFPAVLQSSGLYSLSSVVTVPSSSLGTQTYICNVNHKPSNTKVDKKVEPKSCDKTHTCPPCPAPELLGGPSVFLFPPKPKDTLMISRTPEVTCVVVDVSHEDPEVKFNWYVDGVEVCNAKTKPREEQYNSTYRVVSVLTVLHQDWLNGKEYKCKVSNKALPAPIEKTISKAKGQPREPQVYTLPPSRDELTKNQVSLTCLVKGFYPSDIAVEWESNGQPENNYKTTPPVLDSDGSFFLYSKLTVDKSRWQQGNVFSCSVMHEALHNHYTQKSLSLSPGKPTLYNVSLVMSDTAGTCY
light: B1 light
With B2, the “cell viability of Ramos cells” value in assay [1] amounted to 91%.

B3: HuYON007.V279-Fcµtp multimer (antibody, human IgG1, lambda)
heavy: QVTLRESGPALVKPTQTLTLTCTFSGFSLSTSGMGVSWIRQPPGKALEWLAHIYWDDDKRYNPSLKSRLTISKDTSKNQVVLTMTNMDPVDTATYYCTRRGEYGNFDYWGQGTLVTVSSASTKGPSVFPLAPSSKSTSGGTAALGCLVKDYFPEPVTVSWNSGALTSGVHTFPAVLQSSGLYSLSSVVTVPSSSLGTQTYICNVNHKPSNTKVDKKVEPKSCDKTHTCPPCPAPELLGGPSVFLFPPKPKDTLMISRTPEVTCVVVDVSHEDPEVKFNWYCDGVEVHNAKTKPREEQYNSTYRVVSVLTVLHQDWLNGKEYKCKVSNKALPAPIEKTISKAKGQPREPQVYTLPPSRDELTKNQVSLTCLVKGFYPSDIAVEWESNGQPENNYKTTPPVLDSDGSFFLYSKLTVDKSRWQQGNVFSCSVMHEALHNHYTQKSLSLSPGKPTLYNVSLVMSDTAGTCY
light: B1 light
In the case of B3, in assay [1], the “cell killing of Ramos cells at 100 ng/ml of antibody (alamarBlue)” value (shortened to “cell killing of Ramos cells”) was approximately 100% and the “viability of Colo-205 cells at 100 ng/ml of antibody (alamarBlue)” value (from here on “viability of Colo-205 cells”) was less than 35%.

B4: HuYON007.A287-Fcµtp multimer (antibody, human IgG1, lambda)
heavy: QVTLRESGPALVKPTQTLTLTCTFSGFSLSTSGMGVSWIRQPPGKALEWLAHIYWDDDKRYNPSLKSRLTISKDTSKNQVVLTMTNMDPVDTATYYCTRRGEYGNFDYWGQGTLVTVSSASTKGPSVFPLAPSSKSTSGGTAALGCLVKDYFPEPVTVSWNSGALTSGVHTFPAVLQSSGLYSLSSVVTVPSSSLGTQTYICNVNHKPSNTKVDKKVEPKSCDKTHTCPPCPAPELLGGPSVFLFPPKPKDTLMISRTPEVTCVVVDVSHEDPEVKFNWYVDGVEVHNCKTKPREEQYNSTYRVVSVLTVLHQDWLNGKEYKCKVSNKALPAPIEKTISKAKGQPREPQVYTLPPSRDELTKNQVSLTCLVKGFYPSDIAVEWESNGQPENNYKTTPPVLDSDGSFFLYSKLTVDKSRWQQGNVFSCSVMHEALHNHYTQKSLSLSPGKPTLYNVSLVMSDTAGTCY
light: B1 light
On to B4, for which, in assay [1], the “cell killing of Ramos cells” value is approximately 100% and the “viability of Colo-205 cells” value was less than 35%.

B5: HuYON007.H285-Fcµtp multimer (antibody, human IgG1, lambda)
heavy: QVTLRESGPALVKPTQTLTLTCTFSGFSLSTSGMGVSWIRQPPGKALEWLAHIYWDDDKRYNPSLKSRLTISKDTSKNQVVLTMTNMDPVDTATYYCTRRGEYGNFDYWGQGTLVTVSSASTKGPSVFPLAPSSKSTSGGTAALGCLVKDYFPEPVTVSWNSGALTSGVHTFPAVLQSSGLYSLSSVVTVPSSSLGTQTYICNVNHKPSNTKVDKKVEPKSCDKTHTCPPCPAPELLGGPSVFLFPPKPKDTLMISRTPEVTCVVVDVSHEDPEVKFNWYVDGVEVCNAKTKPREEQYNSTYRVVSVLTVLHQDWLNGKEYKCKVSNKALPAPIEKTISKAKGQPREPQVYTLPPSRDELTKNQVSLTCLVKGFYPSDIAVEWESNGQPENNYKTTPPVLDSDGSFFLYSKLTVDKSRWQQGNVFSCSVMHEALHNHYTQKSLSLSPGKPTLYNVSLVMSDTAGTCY
light: B1 light
Take B5: in assay [1], the “cell killing of Ramos cells” value was approximately 100% and the “viability of Colo-205 cells” value was less than 35%.

B6: HuYON007.L309-Fcµtp multimer (antibody, human IgG1, lambda)
heavy: not shown
light: B1 light
B6: in assay [1], the “cell killing of Ramos cells” value is approximately 100% and the “viability of Colo-205 cells” value was less than 35%.

B7: HuYON007.A287-Fcµtp monomer (antibody, human IgG1, lambda)
heavy: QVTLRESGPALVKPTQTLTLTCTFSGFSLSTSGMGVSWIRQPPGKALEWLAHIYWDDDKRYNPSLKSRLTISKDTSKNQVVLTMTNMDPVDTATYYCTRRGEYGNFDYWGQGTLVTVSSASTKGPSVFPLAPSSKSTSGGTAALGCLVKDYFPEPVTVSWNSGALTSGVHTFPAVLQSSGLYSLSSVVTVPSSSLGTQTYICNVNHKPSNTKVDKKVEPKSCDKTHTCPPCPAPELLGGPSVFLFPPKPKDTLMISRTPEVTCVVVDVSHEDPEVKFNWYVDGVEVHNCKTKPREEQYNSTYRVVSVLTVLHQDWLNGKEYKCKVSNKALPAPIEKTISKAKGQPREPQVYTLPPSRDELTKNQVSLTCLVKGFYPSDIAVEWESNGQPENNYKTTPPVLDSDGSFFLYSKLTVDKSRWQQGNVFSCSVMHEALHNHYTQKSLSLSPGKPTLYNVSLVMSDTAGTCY
light: B1 light
B7: the “cell viability of Ramos cells” value in assay [1] came to 83%.

B8: HuYON007.L309-Fcµtp monomer (antibody, human IgG1, lambda)
heavy: not shown
light: B1 light
Turning to B8, the “cell viability of Ramos cells” value in assay [1] amounted to 92%.

B9: ChSan11 IgG1/kappa antibody (mouse-human chimeric anti-human CD30) (antibody)
heavy: not shown
VL: DIVLTQSPASLAVSLGQRATISCRASESVEYYGTGLMQWYQQKPGQPPKLLIYSASNVESGVPARFTGSGSGTDFSLNIHPVEEDDIAMYFCQQSRKVPWTFGGGTKLEIKR
B9: in assay [2], the “growth level of Karpas 299 cells (percent cell growth, WST-8, 2 µg/ml antibody, 5 days)” value came out at 106%.

B10: ChSan11.A287-Fcµtp multimer (antibody, human IgG1)
heavy: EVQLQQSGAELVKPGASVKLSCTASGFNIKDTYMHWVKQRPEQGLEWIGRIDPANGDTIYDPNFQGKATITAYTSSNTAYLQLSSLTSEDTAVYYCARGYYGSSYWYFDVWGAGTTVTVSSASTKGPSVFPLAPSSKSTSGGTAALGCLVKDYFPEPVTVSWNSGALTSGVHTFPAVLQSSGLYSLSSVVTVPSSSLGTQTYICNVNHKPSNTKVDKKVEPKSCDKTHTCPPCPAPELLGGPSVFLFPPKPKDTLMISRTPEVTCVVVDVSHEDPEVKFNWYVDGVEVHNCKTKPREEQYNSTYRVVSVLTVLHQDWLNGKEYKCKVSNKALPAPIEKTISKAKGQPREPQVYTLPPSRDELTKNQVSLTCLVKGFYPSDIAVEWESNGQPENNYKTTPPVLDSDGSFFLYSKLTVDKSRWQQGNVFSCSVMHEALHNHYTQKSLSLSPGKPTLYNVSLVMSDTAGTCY
VL: B9 VL
As to B10, the “growth level of Karpas 299 cells (percent cell growth, WST-8, 2 µg/ml antibody, 5 days)” value in assay [2] stood at 43%.

B11: ChSan11.V279-Fcµtp multimer (antibody, human IgG1)
heavy: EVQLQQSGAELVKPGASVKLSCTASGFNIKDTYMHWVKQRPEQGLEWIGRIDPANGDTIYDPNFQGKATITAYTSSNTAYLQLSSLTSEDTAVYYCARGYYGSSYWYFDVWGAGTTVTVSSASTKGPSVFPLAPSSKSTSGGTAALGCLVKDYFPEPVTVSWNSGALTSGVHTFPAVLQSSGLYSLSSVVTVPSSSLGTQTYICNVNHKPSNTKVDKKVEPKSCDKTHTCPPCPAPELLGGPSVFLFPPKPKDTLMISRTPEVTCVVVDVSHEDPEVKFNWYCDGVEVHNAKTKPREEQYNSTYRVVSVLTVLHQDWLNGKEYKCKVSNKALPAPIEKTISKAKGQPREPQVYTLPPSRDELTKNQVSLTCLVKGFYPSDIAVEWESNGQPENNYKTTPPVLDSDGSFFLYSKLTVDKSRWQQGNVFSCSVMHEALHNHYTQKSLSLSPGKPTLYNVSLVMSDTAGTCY
VL: B9 VL
Regarding B11, in assay [2], the “growth level of Karpas 299 cells (percent cell growth, WST-8, 2 µg/ml antibody, 5 days)” value was found to be 41%.

B12: ChSan11.L309-Fcµtp multimer (antibody, human IgG1)
heavy: not shown
VL: B9 VL
On to B12, for which the “growth level of Karpas 299 cells (percent cell growth, WST-8, 2 µg/ml antibody, 5 days)” value in assay [2] amounted to 38%.

B13: ChSan11.H285-Fcµtp multimer (antibody, human IgG1)
heavy: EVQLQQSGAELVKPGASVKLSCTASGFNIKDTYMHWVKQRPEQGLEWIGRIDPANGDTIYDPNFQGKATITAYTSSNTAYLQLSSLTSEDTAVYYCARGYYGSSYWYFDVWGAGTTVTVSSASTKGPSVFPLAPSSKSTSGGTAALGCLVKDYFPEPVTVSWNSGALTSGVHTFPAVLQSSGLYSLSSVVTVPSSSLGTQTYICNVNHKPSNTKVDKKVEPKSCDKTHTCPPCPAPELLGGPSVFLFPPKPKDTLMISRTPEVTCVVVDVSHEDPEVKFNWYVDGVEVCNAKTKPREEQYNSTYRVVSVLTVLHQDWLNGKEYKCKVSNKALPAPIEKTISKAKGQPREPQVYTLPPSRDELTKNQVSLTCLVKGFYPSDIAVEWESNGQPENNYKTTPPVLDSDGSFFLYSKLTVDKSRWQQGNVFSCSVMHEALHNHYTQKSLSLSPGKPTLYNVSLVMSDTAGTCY
VL: B9 VL
With B13, the “growth level of Karpas 299 cells (percent cell growth, WST-8, 2 µg/ml antibody, 5 days)” value in assay [2] was 39%.
